From US20230357395A1 (MARENGO THERAPEUTICS, published 2023) come the findings set out here.

In assay [1] the target is T1, human TRBC1 (construct not named) (human, UniProt P01850 1-129, limits assumed).
T1 construct: also called hTRBC1
The assay can be described thus: method not stated.

The target in assay [2] is T2, TRBC2 on TRBC2+ cell lines (HPB-ALL; HH; HDMAR2) (human, UniProt A0A5B9 1-178).
T2 construct: whole, on cells; also called TRBC2+ HPB-ALL cells
The experiment in a line: flow cytometry on TRBC2+ HPB-ALL cells, antibody 200 nM to 0.003387 nM. On the procedure: (§1) A flow cytometry-based assay was performed to check binding of anti-TRBC2x NKp30 to either TRBC2+ HPB-ALL cells, TRBC1+ Jurkat cells or NKp30+ KHYG-1 cells.
(§2) Each antibody was diluted to 200 nM and then serially diluted three-fold down to 0.003387 nM. Antibodies were incubated with each cell line for 1 hour at 4C. […] Zombie UV (BioLegend 423107) viability dye was added to the cells 1:1000 and incubated for 30 minutes at room temperature. Cells were analyzed on the CytoFlex LX flow cytometer.

The target of assay [3] is T3, human NKp30 (construct not named) (human, UniProt O14931 19-135, limits assumed).
T3 construct: also called hNKp30
T3 sequence (looked up): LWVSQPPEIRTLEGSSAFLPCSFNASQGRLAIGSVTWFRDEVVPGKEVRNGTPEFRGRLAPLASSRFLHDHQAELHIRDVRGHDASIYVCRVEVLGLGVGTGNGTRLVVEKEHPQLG
The assay can be described thus: SPR, human NKp30 captured via anti-mouse Fc on CM5, bispecific from 50 nM in two-fold dilutions, 1:1 fit. On the procedure:
(§3) In this example, surface plasmon resonance assay was performed to check binding of anti-TRBC2xNKp30 bispecific antibodies (bispecifics) to either hTRBC2, hTRBC1 or hNKp30 proteins. […] The bispecific antibodies may or may not have an N297A mutation in their Fc regions. FIG. 31B represents a design for monovalent TRBC2 control. Briefly, TRBC2xNKp30 bispecifics at 2 ug/mL were immobilized on CM5 chip via anti-human Fc antibody to 70 RU. Human TRBC2 or human TRBC1 antigens were diluted to 125 nM and then serially diluted two-fold. Association was 300 seconds and dissociation were 600 seconds. This assay was run in 1 x HBS-EP+ Buffer pH 7.4 and 25 C. The data was fit using a 1:1 binding model assess binding of bispecifics to NKp30, human NKp30 at 2 ug/mL was immobilized on CM5 chip via Anti-mouse Fc antibody to 70 RU. TRBC2xNKp30 bispecifics were diluted to 50 nM and then serially diluted two-fold. Association was 300 seconds and dissociation were 600 seconds. This assay was run in 1 x HBS-EP+ Buffer pH 7.4 and 25 C. The data was fit using a 1:1 binding model.

For a further assay, the target named is T4, NKp30 on KHYG-1 NK cells (human, UniProt O14931 19-201).
T4 construct: whole, on cells; also called NK cell line KHYG-1; NKp30+ KHYG-1 cells
T4 sequence (looked up): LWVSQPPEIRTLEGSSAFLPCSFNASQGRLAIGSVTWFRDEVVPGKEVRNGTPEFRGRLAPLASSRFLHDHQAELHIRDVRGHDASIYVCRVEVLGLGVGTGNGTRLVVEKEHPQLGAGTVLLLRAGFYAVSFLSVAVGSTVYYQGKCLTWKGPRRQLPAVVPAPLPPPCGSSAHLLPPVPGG
The experiment in a line: flow cytometry on NKp30+ KHYG-1 cells, antibody 200 nM to 0.003387 nM. The procedure: as §1, §2

The target of assay [4] is T5, human TRBC2 (construct not named) (human, UniProt A0A5B9 1-129, limits assumed).
T5 construct: also called hTRBC2
The experiment in a line: SPR, bispecific captured via anti-human Fc on CM5, hTRBC2 from 125 nM in two-fold dilutions, 1:1 fit. The procedure:
as §3

T2 sequence (A0A5B9 whole entry): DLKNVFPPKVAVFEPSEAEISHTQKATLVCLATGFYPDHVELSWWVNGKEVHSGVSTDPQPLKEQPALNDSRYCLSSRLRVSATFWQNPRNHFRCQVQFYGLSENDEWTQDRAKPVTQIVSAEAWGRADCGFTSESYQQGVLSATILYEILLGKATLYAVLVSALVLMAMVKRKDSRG
T5 sequence (A0A5B9 1-129 limits assumed): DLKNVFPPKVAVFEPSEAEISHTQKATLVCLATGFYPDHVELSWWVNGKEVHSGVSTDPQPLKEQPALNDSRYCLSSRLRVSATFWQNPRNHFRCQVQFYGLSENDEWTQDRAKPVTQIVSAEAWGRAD
T1 sequence (P01850 1-129 limits assumed): as the sequence (A0A5B9 1-129 limits assumed) above, with K3N, N4K, K9E, Y36F counted along it

B1: BIM0460 (Example 8; format not stated) (antibody, V domains shown)
VH: QVQLVQSGAEVKKPGSSVKVSCKASGYTFTGYVMHWVRQAPGQGLEWMGFINPYNDDIQSNERFRGRVTITSDKSTTTAYMELSSLRSEDTAVYYCARGAGYNFDGAYRFFDFWGQGTLVTVSS
VL: DVVMTQSPLSLPVTLGQPASISCRSSQRLVHSNGNTYLHWYQQRPGQSPRLLIYRVSNRFPGVPDRFSGSGSGTDFTLKISRVEAEDVGVYFCSQSTHVPYTFGGGTKVEIK
notes: Humanized JOVI.1 variant
As for B1, binding in assay [1] was characterised by a dissociation constant (Kd) of 17 nM.

B2: BJM0578 (Example 8; format not stated) (antibody, V domains shown)
VH: QVQLVQSGAEVKKPGSSVKVSCKASGYTFTGYVMHWVRQAPGQGLEWMGFIIPIFGTANYAQKFQGRVTITSDKSTTTAYMELSSLRSEDTAVYYCARGAGYNFDGAYRFFDFWGQGTLVTVSS
VL: DVVMTQSPLSLPVTLGQPASISCRSSQRLVHSNGNTYLHWYQQRPGQSPRLLIYRVSNRFPGVPDRFSGSGSGTDFTLKISRVEAEDVGVYFCSQSTHVPYTFGGGTKVEIK
notes: Germlined variant of BIM0460
As for B2, binding in assay [1] was put at a Kd of 110 nM.

B3: BKM0098 (anti-TRBC2/NKp30 bispecific antibody) (bispecific antibody, human IgG1, kappa, N297A)
heavy: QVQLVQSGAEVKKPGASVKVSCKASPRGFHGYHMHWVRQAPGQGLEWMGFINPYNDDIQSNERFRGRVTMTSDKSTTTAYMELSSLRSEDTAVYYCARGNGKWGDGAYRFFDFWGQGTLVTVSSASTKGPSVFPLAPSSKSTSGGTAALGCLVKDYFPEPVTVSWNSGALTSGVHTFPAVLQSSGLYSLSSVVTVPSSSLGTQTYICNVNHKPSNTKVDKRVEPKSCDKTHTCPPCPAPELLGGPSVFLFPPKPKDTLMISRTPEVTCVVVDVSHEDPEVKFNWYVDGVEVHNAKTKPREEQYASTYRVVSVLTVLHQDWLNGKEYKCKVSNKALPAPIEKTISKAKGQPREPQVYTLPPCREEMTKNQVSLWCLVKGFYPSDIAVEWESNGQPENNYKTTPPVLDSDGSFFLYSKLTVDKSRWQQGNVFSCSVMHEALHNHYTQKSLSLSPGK
light: DVVMTQSPLSLPVTPGEPASISCRSSQNLVHSNGRTYLQWYLQKPGQSPQLLIYRVSNRFPGVPDRFSGSGSGTDFTLKISRVEAEDVGVYFCSQSTHVPYTFGGGTKVEIKRTVAAPSVFIFPPSDEQLKSGTASVVCLLNNFYPREAKVQWKVDNALQSGNSQESVTEQDSKDSTYSLSSTLTLSKADYEKHKVYACEVTHQGLSSPVTKSFNRGEC
scFv: EIQLLESGGGLVQPGGSLRLSCAVSGFSITTTGYHWNWVRQAPGKGLEWVGYIYSSGSTSYNPSLKSRFTISRDTSKNTFYLQMNSLRAEDTAVYYCARGDWHYFDYWGQGTMVTVSSGGGGSGGGGSGGGGSGGGGSDSVTTQSPLSLPVTLGQPASISCSGEKLSDKYVHWYQQRPGQSPRMLIYENDRRPSGVPDRFSGSNSGNDATLKISRVEAEDVGVYFCQFWDSTNSAVFGGGTKVEIKDKTHTCPPCPAPELLGGPSVFLFPPKPKDTLMISRTPEVTCVVVDVSHEDPEVKFNWYVDGVEVHNAKTKPREEQYASTYRVVSVLTVLHQDWLNGKEYKCKVSNKALPAPIEKTISKAKGQPREPQVCTLPPSREEMTKNQVSLSCAVKGFYPSDIAVEWESNGQPENNYKTTPPVLDSDGSFFLVSKLTVDKSRWQQGNVFSCSVMHEALHNHYTQKSLSLSPGK
notes: Anti-TRBC2 Fab-Fc and anti-NKp30 scFv-Fc; also called Anti-TRBC2-NKp30-BKM0098; Parental Bispecific
Take B3: the concentration for a half-maximal effect (EC50) (in assay [2]; with NKp30 on KHYG-1 NK cells) was 4 nM throughout. Moreover, the figures for the Kd in assay [3] and in assay [4] were 0.63 nM and 89 nM, respectively.

B4: BKM0240 (anti-TRBC2/NKp30 bispecific antibody) (bispecific antibody, human IgG1, kappa, N297A)
heavy: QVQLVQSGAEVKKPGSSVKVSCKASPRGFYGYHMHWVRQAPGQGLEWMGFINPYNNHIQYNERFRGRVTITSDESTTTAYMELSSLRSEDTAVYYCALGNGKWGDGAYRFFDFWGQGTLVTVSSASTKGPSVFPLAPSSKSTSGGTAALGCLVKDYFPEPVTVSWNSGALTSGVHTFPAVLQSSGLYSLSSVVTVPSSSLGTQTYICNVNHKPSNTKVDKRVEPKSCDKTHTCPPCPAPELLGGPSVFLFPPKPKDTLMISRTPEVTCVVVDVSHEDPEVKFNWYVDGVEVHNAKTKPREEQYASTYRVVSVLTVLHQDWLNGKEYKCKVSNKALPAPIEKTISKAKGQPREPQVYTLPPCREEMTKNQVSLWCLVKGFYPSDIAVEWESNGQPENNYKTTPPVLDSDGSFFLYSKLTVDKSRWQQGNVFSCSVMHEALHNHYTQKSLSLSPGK
light: DVVMTQSPLSLPVTLGQPASISCRSSKNLVHSNGRTYLQWYQQRPGQSPRLLIYRVSNRFPGVPDRFSGSGSGTDFTLKISRVEAEDVGVYFCSQSTREPYTFGGGTKVEIKRTVAAPSVFIFPPSDEQLKSGTASVVCLLNNFYPREAKVQWKVDNALQSGNSQESVTEQDSKDSTYSLSSTLTLSKADYEKHKVYACEVTHQGLSSPVTKSFNRGEC
scFv: EIQLLESGGGLVQPGGSLRLSCAVSGFSITTTGYHWNWVRQAPGKGLEWVGYIYSSGSTSYNPSLKSRFTISRDTSKNTFYLQMNSLRAEDTAVYYCARGDWHYFDYWGQGTMVTVSSGGGGSGGGGSGGGGSGGGGSDSVTTQSPLSLPVTLGQPASISCSGEKLSDKYVHWYQQRPGQSPRMLIYENDRRPSGVPDRFSGSNSGNDATLKISRVEAEDVGVYFCQFWDSTNSAVFGGGTKVEIKDKTHTCPPCPAPELLGGPSVFLFPPKPKDTLMISRTPEVTCVVVDVSHEDPEVKFNWYVDGVEVHNAKTKPREEQYASTYRVVSVLTVLHQDWLNGKEYKCKVSNKALPAPIEKTISKAKGQPREPQVCTLPPSREEMTKNQVSLSCAVKGFYPSDIAVEWESNGQPENNYKTTPPVLDSDGSFFLVSKLTVDKSRWQQGNVFSCSVMHEALHNHYTQKSLSLSPGK
notes: also called Parental Bispecific
In the case of B4, the 50% effective concentration (EC50) (in assay [2]; with NKp30 on KHYG-1 NK cells) was 1.5 nM each time. The results for the dissociation constant (Kd) in assay [3] and in assay [4] were 0.58 nM and 28 nM, respectively.

B5: BKM0312 (anti-TRBC2/NKp30 bispecific antibody) (bispecific antibody)
chain 1: not shown
chain 2: DVVMTQSPLSLPVTLGQPASISCRSSKNLVHSNGRTYLQWYQQRPGQSPRLLIYRVSNRFPGVPDRFSGSGSGTDFTLKISRVEAEDVGVYFCSQSTREPYTFGGGTKVEIKRTVAAPSVFIFPPSDEQLKSGTASVVCLLNNFYPREAKVQWKVDNALQSGNSQESVTEQDSKDSTYSLSSTLTLSKADYEKHKVYACEVTHQGLSSPVTKSFNRGEC
chain 3: EIQLLESGGGLVQPGGSLRLSCAVSGFSITTTGYHWNWVRQAPGKGLEWVGYIYSSGSTSYNPSLKSRFTISRDTSKNTFYLQMNSLRAEDTAVYYCARGDWHYFDYWGQGTMVTVSSGGGGSGGGGSGGGGSGGGGSDSVTTQSPLSLPVTLGQPASISCSGEKLSDKYVHWYQQRPGQSPRMLIYENDRRPSGVPDRFSGSNSGNDATLKISRVEAEDVGVYFCQFWDSTNSAVFGGGTKVEIKDKTHTCPPCPAPELLGGPSVFLFPPKPKDTLMISRTPEVTCVVVDVSHEDPEVKFNWYVDGVEVHNAKTKPREEQYASTYRVVSVLTVLHQDWLNGKEYKCKVSNKALPAPIEKTISKAKGQPREPQVCTLPPSREEMTKNQVSLSCAVKGFYPSDIAVEWESNGQPENNYKTTPPVLDSDGSFFLVSKLTVDKSRWQQGNVFSCSVMHEALHNHYTQKSLSLSPGK
Consider B5, for which the concentration for a half-maximal effect (EC50) (in assay [2]; with NKp30 on KHYG-1 NK cells) was 1.1 nM each time. In addition, the Kd in assay [3] was 0.54 nM; in assay [4] it was 31 nM.

B6: BKM0311 (anti-TRBC2/NKp30 bispecific antibody) (bispecific antibody, human IgG1, kappa, N297A)
heavy: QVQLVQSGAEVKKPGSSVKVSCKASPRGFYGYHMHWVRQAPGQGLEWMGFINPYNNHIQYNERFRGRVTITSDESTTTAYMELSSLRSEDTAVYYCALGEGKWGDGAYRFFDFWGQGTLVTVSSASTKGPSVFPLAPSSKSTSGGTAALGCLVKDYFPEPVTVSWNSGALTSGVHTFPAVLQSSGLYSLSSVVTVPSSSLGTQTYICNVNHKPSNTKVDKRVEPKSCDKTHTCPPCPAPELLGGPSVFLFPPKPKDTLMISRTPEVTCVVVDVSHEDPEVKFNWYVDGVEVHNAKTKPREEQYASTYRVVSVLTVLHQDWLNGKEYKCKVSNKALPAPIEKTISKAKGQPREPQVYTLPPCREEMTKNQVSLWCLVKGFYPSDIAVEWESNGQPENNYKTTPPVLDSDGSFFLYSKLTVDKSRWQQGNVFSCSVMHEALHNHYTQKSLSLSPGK
light: DVVMTQSPLSLPVTLGQPASISCRSSKNLVHSNGRTYLQWYQQRPGQSPRLLIYRVSNRFPGVPDRFSGSGSGTDFTLKISRVEAEDVGVYFCSQSTREPYTFGGGTKVEIKRTVAAPSVFIFPPSDEQLKSGTASVVCLLNNFYPREAKVQWKVDNALQSGNSQESVTEQDSKDSTYSLSSTLTLSKADYEKHKVYACEVTHQGLSSPVTKSFNRGEC
scFv: EIQLLESGGGLVQPGGSLRLSCAVSGFSITTTGYHWNWVRQAPGKGLEWVGYIYSSGSTSYNPSLKSRFTISRDTSKNTFYLQMNSLRAEDTAVYYCARGDWHYFDYWGQGTMVTVSSGGGGSGGGGSGGGGSGGGGSDSVTTQSPLSLPVTLGQPASISCSGEKLSDKYVHWYQQRPGQSPRMLIYENDRRPSGVPDRFSGSNSGNDATLKISRVEAEDVGVYFCQFWDSTNSAVFGGGTKVEIKDKTHTCPPCPAPELLGGPSVFLFPPKPKDTLMISRTPEVTCVVVDVSHEDPEVKFNWYVDGVEVHNAKTKPREEQYASTYRVVSVLTVLHQDWLNGKEYKCKVSNKALPAPIEKTISKAKGQPREPQVCTLPPSREEMTKNQVSLSCAVKGFYPSDIAVEWESNGQPENNYKTTPPVLDSDGSFFLVSKLTVDKSRWQQGNVFSCSVMHEALHNHYTQKSLSLSPGK
In the case of B6, the EC50 (in assay [2]; with NKp30 on KHYG-1 NK cells) was 0.33 nM in each case. For the same molecule, the Kd in assay [3] turned out to be 0.63 nM; in assay [4], 9.2 nM.
